In publication PMC7703596:

Legend:
[1] = tested on: COC(=O)c1ccccc1-c1c2ccc(=N)cc-2oc2cc(N)ccc12; assay: uptake kinetics in HeLa cells, flow cytometry; assay type: cell-based, Homo sapiens; settings: ATP
[2] = tested on: COC(=O)c1ccccc1-c1c2ccc(=N)cc-2oc2cc(N)ccc12; assay: efflux kinetics in HeLa cells, flow cytometry; assay type: cell-based, Homo sapiens; settings: ATP

Substance	Km [1]	Km [2]
P-glycoprotein (P-gp) 14A mutant (Homo sapiens; F336A/F343A/L332A/L975A/M986A/S979A/V331A/V334A/V338A/V345A/V974A/V977A/V981A/V982A)	1.69 ± 0.12 µM	–
P-glycoprotein (P-gp) (Homo sapiens)	–	2.98 ± 0.51 µM
